The numbers were not newly measured in paper PMC11172262, which cites them from elsewhere.

This data set concerns the target Claudin-1 (Homo sapiens) (UniProt O95832).

Consider Claudin-1 ECL1 (from UniProt O95832), for which the dissociation constant Kd is 47 nM.

As usually defined, the Kd is a measure of binding affinity in units of concentration.
